{
  "source": "paper PMC12097070",
  "about": "(2025)",
  "binders": {"B1": {"name": "Nb NBD1 (VHH)", "VHH": "AVQLVESGGGSVQAGGSLTLSCAASINTGNPALVGWYRQAPGKQREMVAMISISGNTNYAPSVKGRFTISRDNANKTIFLQMNSLTPEDTAVYYCKKLPFGSWGQGTQVTVSS"}},
  "target": "human glucose‐regulated protein 78 (hGRP78), full-length (human, UniProt P11021 19-654)",
  "sequence (P11021 19-654)": "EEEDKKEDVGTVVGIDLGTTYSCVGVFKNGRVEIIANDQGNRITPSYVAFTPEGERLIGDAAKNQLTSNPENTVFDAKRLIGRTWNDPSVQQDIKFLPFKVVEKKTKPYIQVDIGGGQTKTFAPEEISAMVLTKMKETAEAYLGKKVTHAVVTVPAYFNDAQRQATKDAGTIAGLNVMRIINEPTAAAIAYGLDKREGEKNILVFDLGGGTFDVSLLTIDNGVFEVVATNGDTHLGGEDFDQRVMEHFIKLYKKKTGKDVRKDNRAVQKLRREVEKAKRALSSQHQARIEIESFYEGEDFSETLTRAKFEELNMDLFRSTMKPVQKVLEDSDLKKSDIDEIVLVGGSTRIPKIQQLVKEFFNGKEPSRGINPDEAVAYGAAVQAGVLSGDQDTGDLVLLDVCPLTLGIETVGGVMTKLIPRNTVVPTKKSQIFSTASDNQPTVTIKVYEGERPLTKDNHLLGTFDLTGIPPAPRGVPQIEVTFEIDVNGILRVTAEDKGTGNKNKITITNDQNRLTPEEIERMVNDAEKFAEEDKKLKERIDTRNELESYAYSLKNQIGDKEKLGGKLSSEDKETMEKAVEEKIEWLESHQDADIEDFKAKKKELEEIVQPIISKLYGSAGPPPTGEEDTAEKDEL",
  "experiment": "SPR",
  "data": [
    {"binder": "B1", "values": [
      {"measurement": "koff", "value": 0.000575, "unit": "s⁻¹"}
    ]}
  ]
}
